The values below come from patent US20230061973A1 (LARIMAR THERAPEUTICS, published 2023).

Changes are numbered by the printed parent chain.

The experiment deals with T1, exemplary TAT frataxin fusion molecule (HIV-1, UniProt Q16595 1-210).
T1 construct: in the bridging assays biotinylated and sulfotagged forms were used; also called TAT-FXN fusion molecule; TAT FXN fusion molecule
T1 sequence: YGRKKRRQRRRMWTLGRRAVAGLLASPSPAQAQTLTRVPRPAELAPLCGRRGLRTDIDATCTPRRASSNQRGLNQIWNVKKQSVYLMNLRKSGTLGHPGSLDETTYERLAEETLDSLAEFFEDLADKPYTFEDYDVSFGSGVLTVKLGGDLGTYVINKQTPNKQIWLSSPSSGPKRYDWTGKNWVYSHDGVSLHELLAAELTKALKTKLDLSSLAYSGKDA
Briefly: PK sandwich ELISA in human plasma, antibody as capture, HRP anti-frataxin mAb detection.

B1: antibody 10-9 (antibody, V domains shown)
VH: QSLEESGGDLVKPGASLTLTCTASGFSFSSGYWICWVRQAPGKGLEWIACIYTGDGDTSYASWAKGRFTISKTSSTTVTLQMTSLTVADTAIYFCARDTSGTFYYNLWGPGTLVAVSS
VL: AAVLTQTPSSVSAAVGGTVTISCQSSESVYKTNYLSWFQKKPGQPPKLLIYDASTLASGVPSRFSGSGSGTQFTLTISDLECDDAATYYCAGGYSDDINAFGGGTEVEIK
notes: Rabbit monoclonal
For B1, the “Mean OD at plasma conc. 0.400 ng/mL” value worked out at 0.077 OD, the “Mean OD at plasma conc. 0.800 ng/mL” value turned out to be 0.1 OD, the “Mean OD at plasma conc. 1.60 ng/mL” value came to 0.14 OD and the “Mean OD at plasma conc. 3.20 ng/mL” value came to 0.229 OD. For the same molecule, the “Mean OD at plasma conc. 6.40 ng/mL” value worked out at 0.437 OD, the “Mean OD at plasma conc. 12.8 ng/mL” value was 0.781 OD, the “Mean OD at plasma conc. 25.6 ng/mL” value was 1.49 OD and the “Mean OD at plasma conc. 51.2 ng/mL” value is 2.77 OD. Further, the “S/N at plasma conc. 0.400 ng/mL” value amounted to 1.6, the “S/N at plasma conc. 0.800 ng/mL” value amounted to 2.1, the “S/N at plasma conc. 1.60 ng/mL” value came out at 3 and the “S/N at plasma conc. 3.20 ng/mL” value is 4.9. Besides, the “S/N at plasma conc. 6.40 ng/mL” value was determined as 9.3, the “S/N at plasma conc. 12.8 ng/mL” value was determined as 16.6, the “S/N at plasma conc. 25.6 ng/mL” value worked out at 31.7 and the “S/N at plasma conc. 51.2 ng/mL” value stood at 59.

B2: antibody 10-5 (antibody, V domains shown)
VH: B1 VH
VL: DVVMTQTPSPVSAPVGGTVTINCQASQNIYSNLAWYQQKPGQPPKLLIYGASTLASGVSSRFKGSRSGTEFTLTISDLECADAATYYCQSYVYSSSTADTFGGGTKVVVE
notes: Rabbit monoclonal
For B2, the “Mean OD at plasma conc. 0.400 ng/mL” value worked out at 0.071 OD, the “Mean OD at plasma conc. 0.800 ng/mL” value is 0.09 OD, the “Mean OD at plasma conc. 1.60 ng/mL” value worked out at 0.135 OD and the “Mean OD at plasma conc. 3.20 ng/mL” value amounted to 0.23 OD. Also, the “Mean OD at plasma conc. 6.40 ng/mL” value stood at 0.447 OD, the “Mean OD at plasma conc. 12.8 ng/mL” value is 0.819 OD, the “Mean OD at plasma conc. 25.6 ng/mL” value was 1.53 OD and the “Mean OD at plasma conc. 51.2 ng/mL” value was determined as 2.86 OD. Further, the “S/N at plasma conc. 0.400 ng/mL” value was 1.5, the “S/N at plasma conc. 0.800 ng/mL” value was 1.9, the “S/N at plasma conc. 1.60 ng/mL” value is 2.9 and the “S/N at plasma conc. 3.20 ng/mL” value stood at 4.9. For the same molecule, the “S/N at plasma conc. 6.40 ng/mL” value is 9.5, the “S/N at plasma conc. 12.8 ng/mL” value worked out at 17.4, the “S/N at plasma conc. 25.6 ng/mL” value came to 32.5 and the “S/N at plasma conc. 51.2 ng/mL” value stood at 60.8.

B3: antibody 12-8 (antibody, V domains shown)
VH: B1 VH
VL: B1 VL
notes: Rabbit monoclonal
With B3, the “Mean OD at plasma conc. 0.400 ng/mL” value stood at 0.07 OD, the “Mean OD at plasma conc. 0.800 ng/mL” value was 0.087 OD, the “Mean OD at plasma conc. 1.60 ng/mL” value amounted to 0.129 OD and the “Mean OD at plasma conc. 3.20 ng/mL” value is 0.225 OD. Also, the “Mean OD at plasma conc. 6.40 ng/mL” value stood at 0.409 OD, the “Mean OD at plasma conc. 12.8 ng/mL” value stood at 0.75 OD, the “Mean OD at plasma conc. 25.6 ng/mL” value is 1.45 OD and the “Mean OD at plasma conc. 51.2 ng/mL” value turned out to be 2.67 OD. Moreover, the “S/N at plasma conc. 0.400 ng/mL” value came to 1.5, the “S/N at plasma conc. 0.800 ng/mL” value was found to be 1.9, the “S/N at plasma conc. 1.60 ng/mL” value is 2.7 and the “S/N at plasma conc. 3.20 ng/mL” value came to 4.8. Besides, the “S/N at plasma conc. 6.40 ng/mL” value stood at 8.7, the “S/N at plasma conc. 12.8 ng/mL” value turned out to be 16, the “S/N at plasma conc. 25.6 ng/mL” value was found to be 30.9 and the “S/N at plasma conc. 51.2 ng/mL” value is 56.9.

B4: antibody 12-1 (antibody, V domains shown)
VH: B1 VH
VL: B2 VL
notes: Rabbit monoclonal
Turning to B4, the “Mean OD at plasma conc. 0.400 ng/mL” value was found to be 0.067 OD, the “Mean OD at plasma conc. 0.800 ng/mL” value was found to be 0.088 OD, the “Mean OD at plasma conc. 1.60 ng/mL” value worked out at 0.137 OD and the “Mean OD at plasma conc. 3.20 ng/mL” value was determined as 0.229 OD. The “Mean OD at plasma conc. 6.40 ng/mL” value is 0.433 OD, the “Mean OD at plasma conc. 12.8 ng/mL” value is 0.795 OD, the “Mean OD at plasma conc. 25.6 ng/mL” value came out at 1.44 OD and the “Mean OD at plasma conc. 51.2 ng/mL” value stood at 2.67 OD. Also, the “S/N at plasma conc. 0.400 ng/mL” value stood at 1.4, the “S/N at plasma conc. 0.800 ng/mL” value came out at 1.9, the “S/N at plasma conc. 1.60 ng/mL” value was 2.9 and the “S/N at plasma conc. 3.20 ng/mL” value stood at 4.9. Besides, the “S/N at plasma conc. 6.40 ng/mL” value is 9.2, the “S/N at plasma conc. 12.8 ng/mL” value is 16.9, the “S/N at plasma conc. 25.6 ng/mL” value amounted to 30.7 and the “S/N at plasma conc. 51.2 ng/mL” value came out at 56.8.

B5: antibody 10-4 (antibody, V domains shown)
VH: B1 VH
VL: B2 VL
notes: Rabbit monoclonal
Turning to B5, the “Mean OD at plasma conc. 0.400 ng/mL” value came to 0.076 OD, the “Mean OD at plasma conc. 0.800 ng/mL” value turned out to be 0.092 OD, the “Mean OD at plasma conc. 1.60 ng/mL” value is 0.14 OD and the “Mean OD at plasma conc. 3.20 ng/mL” value stood at 0.229 OD. The “Mean OD at plasma conc. 6.40 ng/mL” value amounted to 0.411 OD, the “Mean OD at plasma conc. 12.8 ng/mL” value was found to be 0.757 OD, the “Mean OD at plasma conc. 25.6 ng/mL” value amounted to 1.41 OD and the “Mean OD at plasma conc. 51.2 ng/mL” value was found to be 2.7 OD. Moreover, the “S/N at plasma conc. 0.400 ng/mL” value was found to be 1.4, the “S/N at plasma conc. 0.800 ng/mL” value is 1.6, the “S/N at plasma conc. 1.60 ng/mL” value turned out to be 2.5 and the “S/N at plasma conc. 3.20 ng/mL” value was determined as 4.1. For the same molecule, the “S/N at plasma conc. 6.40 ng/mL” value amounted to 7.3, the “S/N at plasma conc. 12.8 ng/mL” value amounted to 13.5, the “S/N at plasma conc. 25.6 ng/mL” value was 25.2 and the “S/N at plasma conc. 51.2 ng/mL” value amounted to 48.3.

B6: antibody 12-10 (antibody, V domains shown)
VH: B1 VH
VL: B1 VL
notes: Rabbit monoclonal
On to B6, for which the “Mean OD at plasma conc. 0.400 ng/mL” value turned out to be 0.067 OD, the “Mean OD at plasma conc. 0.800 ng/mL” value is 0.089 OD, the “Mean OD at plasma conc. 1.60 ng/mL” value is 0.141 OD and the “Mean OD at plasma conc. 3.20 ng/mL” value is 0.242 OD. Besides, the “Mean OD at plasma conc. 6.40 ng/mL” value was 0.447 OD, the “Mean OD at plasma conc. 12.8 ng/mL” value stood at 0.818 OD, the “Mean OD at plasma conc. 25.6 ng/mL” value worked out at 1.51 OD and the “Mean OD at plasma conc. 51.2 ng/mL” value is 2.79 OD. Also, the “S/N at plasma conc. 0.400 ng/mL” value amounted to 1.4, the “S/N at plasma conc. 0.800 ng/mL” value is 1.8, the “S/N at plasma conc. 1.60 ng/mL” value was 2.9 and the “S/N at plasma conc. 3.20 ng/mL” value was found to be 4.9. The “S/N at plasma conc. 6.40 ng/mL” value came to 9.1, the “S/N at plasma conc. 12.8 ng/mL” value stood at 16.7, the “S/N at plasma conc. 25.6 ng/mL” value turned out to be 30.8 and the “S/N at plasma conc. 51.2 ng/mL” value is 57.

B7: antibody 12-3 (antibody, V domains shown)
VH: B1 VH
VL: B2 VL
notes: Rabbit monoclonal
For the molecule B7, the “Mean OD at plasma conc. 0.400 ng/mL” value amounted to 0.067 OD, the “Mean OD at plasma conc. 0.800 ng/mL” value was 0.091 OD, the “Mean OD at plasma conc. 1.60 ng/mL” value was found to be 0.133 OD and the “Mean OD at plasma conc. 3.20 ng/mL” value was 0.22 OD. Also, the “Mean OD at plasma conc. 6.40 ng/mL” value is 0.416 OD, the “Mean OD at plasma conc. 12.8 ng/mL” value stood at 0.767 OD, the “Mean OD at plasma conc. 25.6 ng/mL” value came out at 1.45 OD and the “Mean OD at plasma conc. 51.2 ng/mL” value is 2.78 OD. The “S/N at plasma conc. 0.400 ng/mL” value was 1.6, the “S/N at plasma conc. 0.800 ng/mL” value is 2.1, the “S/N at plasma conc. 1.60 ng/mL” value is 3.1 and the “S/N at plasma conc. 3.20 ng/mL” value stood at 5.1. For the same molecule, the “S/N at plasma conc. 6.40 ng/mL” value is 9.7, the “S/N at plasma conc. 12.8 ng/mL” value stood at 17.8, the “S/N at plasma conc. 25.6 ng/mL” value turned out to be 33.7 and the “S/N at plasma conc. 51.2 ng/mL” value is 64.6.

B8: antibody 10-12 (antibody, V domains shown)
VH: B1 VH
VL: B1 VL with A1E, A2L, P8A, E108V, I109V
notes: Rabbit monoclonal
As for B8, the “Mean OD at plasma conc. 0.400 ng/mL” value is 0.073 OD, the “Mean OD at plasma conc. 0.800 ng/mL” value amounted to 0.092 OD, the “Mean OD at plasma conc. 1.60 ng/mL” value was 0.136 OD and the “Mean OD at plasma conc. 3.20 ng/mL” value stood at 0.23 OD. For the same molecule, the “Mean OD at plasma conc. 6.40 ng/mL” value worked out at 0.417 OD, the “Mean OD at plasma conc. 12.8 ng/mL” value was 0.778 OD, the “Mean OD at plasma conc. 25.6 ng/mL” value is 1.4 OD and the “Mean OD at plasma conc. 51.2 ng/mL” value turned out to be 2.7 OD. For the same molecule, the “S/N at plasma conc. 0.400 ng/mL” value came out at 1.6, the “S/N at plasma conc. 0.800 ng/mL” value was 2, the “S/N at plasma conc. 1.60 ng/mL” value is 3 and the “S/N at plasma conc. 3.20 ng/mL” value came out at 5.1. For the same molecule, the “S/N at plasma conc. 6.40 ng/mL” value amounted to 9.3, the “S/N at plasma conc. 12.8 ng/mL” value came out at 17.3, the “S/N at plasma conc. 25.6 ng/mL” value was 31.2 and the “S/N at plasma conc. 51.2 ng/mL” value was found to be 60.

B9: antibody 10-1 (antibody, V domains shown)
VH: B1 VH
VL: B1 VL with A1E, A2L, P8A, E108V, I109V
notes: Rabbit monoclonal
On to B9, for which the “Mean OD at plasma conc. 0.400 ng/mL” value was determined as 0.07 OD, the “Mean OD at plasma conc. 0.800 ng/mL” value came to 0.093 OD, the “Mean OD at plasma conc. 1.60 ng/mL” value worked out at 0.14 OD and the “Mean OD at plasma conc. 3.20 ng/mL” value was found to be 0.228 OD. Moreover, the “Mean OD at plasma conc. 6.40 ng/mL” value turned out to be 0.43 OD, the “Mean OD at plasma conc. 25.6 ng/mL” value stood at 1.44 OD, the “Mean OD at plasma conc. 51.2 ng/mL” value worked out at 2.66 OD and the “S/N at plasma conc. 0.400 ng/mL” value is 1.5. Besides, the “S/N at plasma conc. 0.800 ng/mL” value turned out to be 2, the “S/N at plasma conc. 1.60 ng/mL” value was 3, the “S/N at plasma conc. 3.20 ng/mL” value is 5 and the “S/N at plasma conc. 6.40 ng/mL” value stood at 9.3. The “S/N at plasma conc. 12.8 ng/mL” value turned out to be 17.1, the “S/N at plasma conc. 25.6 ng/mL” value is 31.3 and the “S/N at plasma conc. 51.2 ng/mL” value amounted to 57.7.
